In paper PMC9482634, “Structural mechanism of tapasin-mediated MHC-I peptide loading in antigen presentation” (Nature Communications, 2022):

T1: human tapasin, lumenal domain (Gly1-Glu381), as used in the SPR experiments with the PaSta Fabs (Homo sapiens (human))
T1 construct: human tapasin, lumenal domain, residues Gly1 to Glu381; the construct encodes the signal peptide too, the protein is secreted; for the SPR with the Fabs nothing is said; also called TPN; source: Drosophila S2 cells, purified from culture medium (chelate agarose, SEC, anion exchange)
T1 chain: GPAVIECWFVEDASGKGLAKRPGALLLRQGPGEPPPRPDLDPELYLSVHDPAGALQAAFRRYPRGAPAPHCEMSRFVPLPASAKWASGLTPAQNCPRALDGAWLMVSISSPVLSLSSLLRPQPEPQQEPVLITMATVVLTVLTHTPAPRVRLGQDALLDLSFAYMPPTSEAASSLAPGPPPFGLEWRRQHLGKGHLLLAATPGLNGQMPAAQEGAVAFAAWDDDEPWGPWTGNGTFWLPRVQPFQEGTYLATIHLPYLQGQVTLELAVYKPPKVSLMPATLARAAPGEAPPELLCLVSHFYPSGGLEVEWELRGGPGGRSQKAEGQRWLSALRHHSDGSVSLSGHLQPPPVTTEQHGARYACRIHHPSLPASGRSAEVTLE


How the values were obtained:
Settings in all cases: both partners purified
[1] = target: T1, human tapasin, lumenal domain …; experiment: SPR; PaSta2 Fab (panel c) or PaSta1 Fab (panel d) immobilised on a CM5 chip, tapasin captured on it, the other Fab injected at 62.5 to 4000 nM; fit to a 1:1 binding model (BiaEval 3.1); 25 °C, 10 mM HEPES pH 7.4, 150 mM NaCl, 3 mM EDTA, 0.05% Surfactant P20, 30 µL/min
[2] = target: T2, human tapasin lumenal domain (Gly1-Glu381), BirA and 6X His sequences removed with 3C protease (human, UniProt O15533); experiment: crystal structure; tapasin–PaSta1 Fab complex, PDB 7TUF, 2.8 Å; crystals grown in 10% PEG 4000, 0.1 M Hepes, pH 7.5
T2 construct: Residues of the 3C site may remain at the C-terminus after cleavage; source: Drosophila S2 cells, purified from the culture media (chelate agarose, SEC, anion exchange), treated with 3C protease; not shown: 6X HIS, C-terminal, cleaved

[3] = target: T3, human tapasin lumenal domain (Gly1-Glu381), state of the C-terminal tags not stated (human, UniProt O15533); experiment: SPR; Fab of PaSta1 or PaSta2 covalently coupled onto CM5 chips (about 200 RU); tapasin 0.06 µM to 4 µM injected; 25 °C; 10 mM HEPES pH 7.4, 150 mM NaCl, 3 mM EDTA, 0.05% Surfactant P20; 30 µL/min; 1:1 binding model
T3 construct: Tapasin as injected over the Fab surfaces in SPR and as added in the NMR experiments; source: Drosophila S2 cells, purified from the culture media (chelate agarose, SEC, anion exchange)

[4] = target: parental HLA-B*44:05 refolded with hβ2m and the peptide … (human | ); experiment: SPR; biotinylated tapasin captured (200 RU) on a streptavidin chip; MHC-I offered in graded concentrations (15.6 nM to 500 nM for B44:02–9mer and B44:05-T73C–6mer, 1 µM to 16 µM for B44:05–9mer); 25 °C; 10 mM HEPES pH 7.4, 150 mM NaCl, 3 mM EDTA, 0.05% Surfactant P20; 30 µL/min; global fit to a 1:1 binding model; n = 3
[5] = target: T2, human tapasin lumenal domain …; experiment: crystal structure; tapasin–PaSta2 Fab complex, PDB 7TUG, 3.9 Å; crystals grown in 17% PEG 10000, 0.1 M Bis-Tris, pH 5.5, 0.1 M Am acetate

Row | Binder | Kd [1] | binding result [3] | further results
1 | PaSta1 Fab (anti-tapasin monoclonal antibody PaSta1) (Fab, V domains shown, heavy chain of the Fab in PDB 7TUF (ends after the second cysteine of the hinge, then His6); light chain of the Fab in PDB 7TUF; also called Pt1; Pt1H; source: Expi293F, transfected, purified from culture supernatant (TALON, SEC)) VH: DVQLQESGPGLVIPSQSLSLTCTVTGYSITTDYAWNWIRQFPGNRLEWMGYISSSGVTVYNPSLKSRISITRDTSKNQFFLQLISVTTEDTATYYCARRGYYRYDSIDYWGQGTTLTVSS VL: QIVLSQSPAILSASPGEKVTMTCRATSSVSYIHWYQQKPGSSPKPWIYATSSLTSGVPVRFSGSGSGTSYSLTISRVEAEDAATYYCQQWSSNPPTFGGGTKLEIK | 1.1 nM |  | 
2 | Fab fragment of the anti-tapasin monoclonal antibody PaSta1 (Fab, V domains shown, H chain of PaSta1 in PDB 7TUF (deposited here); the Fab H chain ends after the second cysteine in the hinge region, followed by the 6X HIS tag; L chain of PaSta1 in PDB 7TUF (deposited here); The L chain search model had VL and Cκ; also called PaSta1 (Fab); Pt1; source: Expi293F cells, transfected, purified from culture supernatants (TALON, SEC)) VH: DVQLQESGPGLVIPSQSLSLTCTVTGYSITTDYAWNWIRQFPGNRLEWMGYISSSGVTVYNPSLKSRISITRDTSKNQFFLQLISVTTEDTATYYCARRGYYRYDSIDYWGQGTTLTVSS VL: QIVLSQSPAILSASPGEKVTMTCRATSSVSYIHWYQQKPGSSPKPWIYATSSLTSGVPVRFSGSGSGTSYSLTISRVEAEDAATYYCQQWSSNPPTFGGGTKLEIK |  | binds | binding result [2]: binds
3 | human tapasin lumenal domain (Gly1-Glu381), biotinylated at its C-terminal BirA sequence (domain or fragment, UniProt O15533 21-401, looked up, biotin at the C-terminal BirA sequence, Tapasin as captured on the streptavidin chip for SPR; also called biotinylated tapasin; source: Drosophila S2 cells, purified from the culture media (chelate agarose, SEC, anion exchange)) GPAVIECWFVEDASGKGLAKRPGALLLRQGPGEPPPRPDLDPELYLSVHDPAGALQAAFRRYPRGAPAPHCEMSRFVPLPASAKWASGLTPAQNCPRALDGAWLMVSISSPVLSLSSLLRPQPEPQQEPVLITMATVVLTVLTHTPAPRVRLGQDALLDLSFAYMPPTSEAASSLAPGPPPFGLEWRRQHLGKGHLLLAATPGLNGQMPAAQEGAVAFAAWDDDEPWGPWTGNGTFWLPTVQPFQEGTYLATIHLPYLQGQVTLELAVYKPPKVSLMPATLARAAPGEAPPELLCLVSHFYPSGGLEVEWELRGGPGGRSQKAEGQRWLSALRHHSDGSVSLSGHLQPPPVTTEQHGARYACRIHHPSLPASGRSAEVTLE |  |  | Kd [4]: 1310 nM
4 | PaSta2 Fab (anti-tapasin monoclonal antibody PaSta2) (Fab, V domains shown, heavy chain of the Fab in PDB 7TUG and 7TUH (ends after the second cysteine of the hinge, then His6); light chain of the Fab in PDB 7TUG and 7TUH; also called Pt2; Pt2H; source: Expi293F, transfected, purified from culture supernatant (TALON, SEC)) VH: QVQLQQSGAELVRPGTSVKMSCKAAGYTFTNYWIGWIKQRPGHGLEWIGDIYPGGGYTNYNEKFKVKATLTADTSSVTAYMQLSSLTSEDSAIYYCTREGNYGFAYWGQGTLVTVSA VL: not shown | 1.6 nM |  | 
5 | Fab fragment of the anti-tapasin monoclonal antibody PaSta2 (Fab, V domains shown, H chain of PaSta2 in PDB 7TUG and 7TUH (deposited here); the Fab H chain ends after the second cysteine in the hinge region, followed by the 6X HIS tag; L chain of PaSta2 in PDB 7TUG and 7TUH (deposited here); also called PaSta2 (Fab); Pt2; source: Expi293F cells, transfected, purified from culture supernatants (TALON, SEC)) VH: QVQLQQSGAELVRPGTSVKMSCKAAGYTFTNYWIGWIKQRPGHGLEWIGDIYPGGGYTNYNEKFKVKATLTADTSSVTAYMQLSSLTSEDSAIYYCTREGNYGFAYWGQGTLVTVSA VL: not shown |  | binds | binding result [5]: binds
